Source: patent US7919236 (GIVAUDAN, dated 2011)
Blank lines part the entries; values can stand above or below the molecule they belong to.

Experiments:
Assay in all cases: cell-based or functional assay
[1] = molecular target: human TAS1R2/TAS1R3 sweet taste receptor heterodimer (human) (UniProt Q8TE23)
[2] = molecular target: human TAS2R16 bitter receptor (human) (UniProt Q9NYV7)
[3] = molecular target: T1, mouse T2R5 bitter receptor (mouse, UniProt Q9JKT4 1-300)
T1 sequence (looked up): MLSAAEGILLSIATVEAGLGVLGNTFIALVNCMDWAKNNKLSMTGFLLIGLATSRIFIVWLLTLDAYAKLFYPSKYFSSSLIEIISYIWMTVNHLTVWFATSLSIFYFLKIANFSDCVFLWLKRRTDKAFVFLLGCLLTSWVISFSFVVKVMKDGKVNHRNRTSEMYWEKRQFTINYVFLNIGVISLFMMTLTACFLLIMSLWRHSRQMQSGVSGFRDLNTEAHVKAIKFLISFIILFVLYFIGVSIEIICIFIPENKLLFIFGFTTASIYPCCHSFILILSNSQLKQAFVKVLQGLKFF

[4] = molecular target: human TAS1R2/TAS1R3 sweet taste receptor heterodimer (human, UniProt Q8TE23 20-839; Q7RTX0 21-852)
Sequence of human TAS1R2/TAS1R3 sweet taste receptor heterodimer (Q8TE23 20-839, chain 1 of 2): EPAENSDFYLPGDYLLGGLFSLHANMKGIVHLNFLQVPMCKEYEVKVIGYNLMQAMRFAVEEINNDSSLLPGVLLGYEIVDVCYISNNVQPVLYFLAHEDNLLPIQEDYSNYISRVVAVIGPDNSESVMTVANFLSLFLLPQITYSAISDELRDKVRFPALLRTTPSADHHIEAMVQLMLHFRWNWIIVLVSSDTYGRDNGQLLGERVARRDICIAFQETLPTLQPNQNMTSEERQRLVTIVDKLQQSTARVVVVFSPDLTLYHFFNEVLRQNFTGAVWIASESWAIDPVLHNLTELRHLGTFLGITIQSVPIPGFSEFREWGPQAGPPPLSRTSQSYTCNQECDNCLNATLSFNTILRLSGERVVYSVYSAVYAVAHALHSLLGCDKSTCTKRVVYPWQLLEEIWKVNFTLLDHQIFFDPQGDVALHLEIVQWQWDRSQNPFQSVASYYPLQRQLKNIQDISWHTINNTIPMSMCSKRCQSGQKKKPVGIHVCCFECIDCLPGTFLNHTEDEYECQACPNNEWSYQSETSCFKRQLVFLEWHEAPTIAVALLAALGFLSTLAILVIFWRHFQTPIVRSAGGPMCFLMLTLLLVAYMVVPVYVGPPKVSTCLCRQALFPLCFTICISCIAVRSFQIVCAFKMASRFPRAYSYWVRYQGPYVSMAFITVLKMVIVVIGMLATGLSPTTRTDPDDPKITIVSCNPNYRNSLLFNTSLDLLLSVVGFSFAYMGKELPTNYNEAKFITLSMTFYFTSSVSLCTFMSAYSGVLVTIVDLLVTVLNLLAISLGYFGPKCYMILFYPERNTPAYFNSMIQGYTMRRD
Sequence of human TAS1R2/TAS1R3 sweet taste receptor heterodimer (Q7RTX0 21-852, chain 2 of 2): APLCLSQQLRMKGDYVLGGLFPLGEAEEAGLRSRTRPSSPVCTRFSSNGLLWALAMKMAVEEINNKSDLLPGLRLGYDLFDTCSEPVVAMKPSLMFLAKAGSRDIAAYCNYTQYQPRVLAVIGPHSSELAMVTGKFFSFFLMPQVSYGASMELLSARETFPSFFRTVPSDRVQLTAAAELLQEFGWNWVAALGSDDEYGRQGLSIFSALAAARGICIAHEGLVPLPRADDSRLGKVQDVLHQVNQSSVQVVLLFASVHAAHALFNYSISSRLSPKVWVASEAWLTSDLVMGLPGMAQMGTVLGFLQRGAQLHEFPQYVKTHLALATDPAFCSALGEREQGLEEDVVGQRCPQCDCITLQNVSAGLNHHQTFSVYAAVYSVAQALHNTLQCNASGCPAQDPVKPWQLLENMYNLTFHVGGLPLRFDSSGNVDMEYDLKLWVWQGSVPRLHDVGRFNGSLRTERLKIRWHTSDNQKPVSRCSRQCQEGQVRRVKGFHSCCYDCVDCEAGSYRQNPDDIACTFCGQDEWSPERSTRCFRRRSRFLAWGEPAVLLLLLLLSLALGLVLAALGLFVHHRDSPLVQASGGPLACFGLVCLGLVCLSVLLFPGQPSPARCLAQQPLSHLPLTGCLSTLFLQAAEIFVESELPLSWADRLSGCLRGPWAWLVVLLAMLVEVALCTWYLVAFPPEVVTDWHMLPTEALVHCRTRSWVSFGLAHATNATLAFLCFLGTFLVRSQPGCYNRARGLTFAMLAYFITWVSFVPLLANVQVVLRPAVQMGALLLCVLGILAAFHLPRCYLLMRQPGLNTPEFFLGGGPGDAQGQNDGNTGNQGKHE

Sequence of human TAS1R2/TAS1R3 sweet taste receptor heterodimer (human) (Q8TE23 20-839, chain 1 of 2): as the sequence (Q8TE23 20-839, chain 1 of 2) above
Sequence of human TAS1R2/TAS1R3 sweet taste receptor heterodimer (human) (Q7RTX0 21-852, chain 2 of 2, further chain): as the sequence (Q7RTX0 21-852, chain 2 of 2) above
Sequence of human TAS2R16 bitter receptor (human) (Q9NYV7 whole entry): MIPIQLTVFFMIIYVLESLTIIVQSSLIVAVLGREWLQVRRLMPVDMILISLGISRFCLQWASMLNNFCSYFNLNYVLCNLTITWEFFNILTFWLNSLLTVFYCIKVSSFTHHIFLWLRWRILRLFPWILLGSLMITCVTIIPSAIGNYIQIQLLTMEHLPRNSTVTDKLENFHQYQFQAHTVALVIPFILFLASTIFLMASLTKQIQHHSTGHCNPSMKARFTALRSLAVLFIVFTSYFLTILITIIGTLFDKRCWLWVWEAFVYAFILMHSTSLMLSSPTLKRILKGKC

increase in mean Fluo-4 calcium fluorescence over baseline after 2.5 mM sucralose [1]: 1300 RFU
Molecule: Gα15

increase in mean Fluo-4 calcium fluorescence over baseline after 5 mM phenyl-β-D-glucopyranoside [2]: 3490 RFU
increase in mean Fluo-4 calcium fluorescence over baseline after 10 µM cycloheximide [3]: 2570 RFU
Molecule: wild-type Gα16 (from UniProt P30679 1-374)

fluorescence signal after 2.5 mM aspartame, acesulfame K or sucralose, relative to wild-type Gα16 [4]: 2 fold vs wild-type Gα16
fluorescence signal after 10 uM cycloheximide, relative to wild-type Gα16 [3]: 5 fold vs wild-type Gα16
B1: Gα16-gustducin44 chimeric G-protein (other)
chain: MARSLTWRCCPWCLTEDEKAAARVDQEINRILLEQKKQDRGELKLLLLGPGESGKSTFIKQMRIIHGAGYSEEERKGFRPLVYQNIFVSMRAMIEAMERLQIPFSRPESKHHASLVMSQDPYKVTTFEKRYAAAMQWLWRDAGIRACYERRREFHLLDSAVYYLSHLERITEEGYVPTAQDVLRSRMPTTGINEYCFSVQKTNLRIVDVGGQKSERKKWIHCFENVIALIYLASLSEYDQCLEENNQENRMKESLALFGTILELPWFKSTSVILFLNKTDILEEKIPTSHLATYFPSFQGPKQDAEAAKRFILDMYTRMYTGCVDGPEGSNLKKEDKEIYSHMTCATDTQNVKFVFDAVTDIIIKENLKDCGLF
